Measurements taken from patent US6512102.

B1: mouse casein kinase I epsilon, HA-tagged (CKIε-HA) (protein)
chain: MELRVGNKYRLGRKIGSGSFGDIYLGANIASGEEVAIKLECVKTKHPQLHIESKFYKMMQGGVGIPSIKWCGAEGDYNVMVMELLGPSLEDLFNFCSRKFSLKTVLLLADQMISRIEYIHSKNFIHRDVKPDNFLMGLGKKGNLVYIIDFGLAKKYRDARTHQHIPYRENKNLTGTARYASINTHLGIEQSRRDDLESLGYVLMYFNLGSLPWQGLKAATKRQKYERISEKKMSTPIEVLCKGYPSEFSTYLNFCRSLRFDDKPDYSYLRQLFRNLFHRQGFSYDYVFDWNMLKFGAARNPEDVDRERREHEREERMGQLRGSATRALPPGPPTGATANRLRSAAEPVASTPASRIQQTGNTSPRAISRADRERKVSMRLHRGAPANVSSSDLTGRQEVSRLAASQTSVPFDHLGK
B2: C-terminally truncated CKIε (protein)
chain: MELRVGNKYRLGRKIGSGSFGDIYLGANIASGEEVAIKLECVKTKHPQLHIESKFYKMMQGGVGIPSIKWCGAEGDYNVMVMELLGPSLEDLFNFCSRKFSLKTVLLLADQMISRIEYIHSKNFIHRDVKPDNFLMGLGKKGNLVYIIDFGLAKKYRDARTHQHIPYRENKNLTGTARYASINTHLGIEQSRRDDLESLGYVLMYFNLGSLPWQGLKAATKRQKYERISEKKMSTPIEVLCKGYPSEFSTYLNFCRSLRFDDKPDYSYLRQLFRNLFHRQGFSYDYVFDWNMLKFGAARNPED

Chain of GSK3 (huGSK3myc), P49841 (P49841 whole entry, looked up): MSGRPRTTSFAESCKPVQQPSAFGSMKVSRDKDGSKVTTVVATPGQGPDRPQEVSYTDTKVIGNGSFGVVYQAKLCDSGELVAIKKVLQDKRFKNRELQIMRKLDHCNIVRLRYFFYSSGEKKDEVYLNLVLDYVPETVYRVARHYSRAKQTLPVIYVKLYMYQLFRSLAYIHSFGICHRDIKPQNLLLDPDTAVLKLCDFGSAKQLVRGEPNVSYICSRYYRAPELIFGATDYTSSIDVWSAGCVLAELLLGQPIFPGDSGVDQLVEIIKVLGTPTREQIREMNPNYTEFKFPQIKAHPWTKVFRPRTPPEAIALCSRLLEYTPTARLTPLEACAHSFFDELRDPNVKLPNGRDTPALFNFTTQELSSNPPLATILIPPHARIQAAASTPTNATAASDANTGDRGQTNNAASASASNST
Chain of β-catenin (P35222 2-781): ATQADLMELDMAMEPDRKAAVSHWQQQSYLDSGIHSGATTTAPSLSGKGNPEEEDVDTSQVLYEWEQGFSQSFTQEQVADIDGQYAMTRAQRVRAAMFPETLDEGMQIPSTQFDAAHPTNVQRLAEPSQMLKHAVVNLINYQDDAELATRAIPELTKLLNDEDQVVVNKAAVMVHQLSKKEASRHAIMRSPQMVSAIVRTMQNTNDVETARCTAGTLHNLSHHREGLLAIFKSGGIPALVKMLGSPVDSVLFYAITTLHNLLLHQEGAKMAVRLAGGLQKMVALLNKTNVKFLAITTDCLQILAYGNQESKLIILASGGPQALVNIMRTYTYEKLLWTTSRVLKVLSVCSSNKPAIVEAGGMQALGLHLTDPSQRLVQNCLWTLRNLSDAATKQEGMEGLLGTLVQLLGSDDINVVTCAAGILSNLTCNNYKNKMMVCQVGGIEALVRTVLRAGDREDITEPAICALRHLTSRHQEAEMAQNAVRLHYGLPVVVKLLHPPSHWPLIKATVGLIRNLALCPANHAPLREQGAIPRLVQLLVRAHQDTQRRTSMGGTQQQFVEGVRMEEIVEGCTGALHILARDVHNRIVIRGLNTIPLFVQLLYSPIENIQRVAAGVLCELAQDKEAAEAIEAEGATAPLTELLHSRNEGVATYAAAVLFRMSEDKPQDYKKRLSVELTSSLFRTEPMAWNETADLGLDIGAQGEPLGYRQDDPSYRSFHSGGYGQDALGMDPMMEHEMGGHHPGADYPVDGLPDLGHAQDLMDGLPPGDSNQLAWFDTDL

| Protein | phosphorylation (Axin) | in vitro kinase assay (phosphorylation of GSK3) (GSK3 (huGSK3myc), P49841) | in vitro phosphorylation (β-catenin) |
| --- | --- | --- | --- |
| B1 | CKIε phosphorylates Axin | either purified CKIε protein or immunoprecipitated CKIε phosphorylated purified GSK3 protein as well as immunoprecipitated GSK3 protein | CKIε phosphorylates β-catenin in vitro |
| B2 |  | A truncated mutant, CKIε, where the C-terminus was deleted had intact kinase activity. It was immunoprecipitated using anti-HA antibody and mixed with Immunoprecipitated GSK3. |  |
